Patent publication US20260226120A1 (University of Washington, published 2026)
Values joined by “and” are separate entries in the source; they are usually repeats but may differ in a detail not shown here. Identical values can stand only once.

Molecular target: HLA-DQ7 (MHC class II) on autologous antigen presenting cells (BLCL) of patient 5 (human)
Experiment: cell-based or functional assay

Binder	interferon gamma ELISpot with expanded patient 5 T cells
WSNGLGLDAL [P17 redesign Des-1 peptide (163-WSNGLGLDAL-172)]	~25 spot forming units/10,000 cells
WSDGLALNAL [native dystrophin exon-6 P17 HLA-DQ7 epitope peptide (163-WSDGLALNAL-172)]	~75 spot forming units/10,000 cells and ~3 fold above background
WSDGTGLNAL [P17 redesign Des-2 peptide (163-WSDGTGLNAL-172)]	~25 spot forming units/10,000 cells
LSDGTGLNAL [P17 redesign Des-3 peptide (163-LSDGTGLNAL-172)]	~25 spot forming units/10,000 cells
